Measurements: patent publication US6884616

Assays:
[1] = target: Mononine (purified Factor IX) (UniProt P00740)
[2] = target: Recombinant human Factor IX immunoprecipitated from supernatants of GPIIb-FIX(WT.I1)-transfected HEL cells (UniProt P00740)

## Factor XIa (Enzyme Research Lab., Swansea, UK)
[1]
  FIX cleavage after incubation with FXIa (rate of activation and protein profile): The rate of activation and the protein profile from HEL supernatants was similar to the results obtained with Mononine
[2]
  FIX cleavage after incubation with FXIa (immunoblot of immunoprecipitated FIX, enzyme/substrate 1/40): activation of the immunoprecipitated FIX from HEL cells resulted in the appearance of two bands corresponding to the heavy chain (29 kDa) and the light chain (19 kDa)
